Consider six molecules from US20230405146A1 (HARBOUR ANTIBODIES, published 2023).

Assay [1] concerns the target T1, CD34 peptide (region 191 aa-207aa of the extracellular domain of CD34) coupled to BSA (human, also: coupled to BSA, site not given here).
T1 construct: also called CD34 specific peptide
T1 peptide: LEQNKTSSCAEFKKDRG
The assay is described as follows: not stated: column headed Affinity, with no unit, method or antigen form printed; table of the CD34-peptide-positive monoclonals.

Assay [2] addresses T2, human Gpr56 on cells (primary blood cells; 32D-Gpr56 cell line) (human, UniProt Q9Y653 26-693).
T2 construct: whole, on cells; In the nanoparticle assays the cells were gated or isolated by CD34, not by Gpr56
Briefly: flow cytometry, 32D-Gpr56 cells, α-rat AF647 secondary; the dashed histogram is taken as the control. A general note: A flow cytometer gives signals particle by particle.

Where a chain is given by its changes, count along the chain named. Ends that are not written are not given here.

T2 sequence (Q9Y653 26-693): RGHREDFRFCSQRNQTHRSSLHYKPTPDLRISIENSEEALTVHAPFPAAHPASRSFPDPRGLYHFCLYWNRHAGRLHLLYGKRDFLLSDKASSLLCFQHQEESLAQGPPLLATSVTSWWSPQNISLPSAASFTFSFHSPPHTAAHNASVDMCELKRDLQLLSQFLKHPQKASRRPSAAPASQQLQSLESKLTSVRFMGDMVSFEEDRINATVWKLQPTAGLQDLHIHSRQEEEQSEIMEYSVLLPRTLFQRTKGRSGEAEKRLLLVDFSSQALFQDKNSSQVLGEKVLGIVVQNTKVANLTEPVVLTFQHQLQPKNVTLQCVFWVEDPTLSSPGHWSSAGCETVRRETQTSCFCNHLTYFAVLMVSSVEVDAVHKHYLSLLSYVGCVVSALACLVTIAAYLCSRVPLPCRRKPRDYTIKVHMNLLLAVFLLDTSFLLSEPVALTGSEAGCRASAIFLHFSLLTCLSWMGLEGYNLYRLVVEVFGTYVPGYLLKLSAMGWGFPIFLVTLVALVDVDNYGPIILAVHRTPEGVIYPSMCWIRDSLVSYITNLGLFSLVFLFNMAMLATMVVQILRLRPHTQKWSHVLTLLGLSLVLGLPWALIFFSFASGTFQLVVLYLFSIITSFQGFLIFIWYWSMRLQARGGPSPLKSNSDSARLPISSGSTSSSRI

B1: 4.5c5 (antibody, V domains shown)
VH: EMQLLESGGGLVQPGGSLRLSCAASGFTFGHYAMTWVRQVPGKGLDWVSAISGGGTFTHYADSVKGRFTTSRDNSKNTLYLQMSSLRAEDTALYYCAKDQGYDYSWYYFDYWGQGTLVTVSS
VL: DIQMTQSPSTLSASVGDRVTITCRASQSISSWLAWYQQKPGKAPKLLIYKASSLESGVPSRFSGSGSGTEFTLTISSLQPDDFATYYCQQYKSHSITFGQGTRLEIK
notes: Anti-CD34 hybridoma clone from H2L2 mice
Molecule B1 showed an Affinity in assay [1] of 1.3e-09.

B2: 4.5 e5 (antibody, V domains shown)
VH: B1 VH
VL: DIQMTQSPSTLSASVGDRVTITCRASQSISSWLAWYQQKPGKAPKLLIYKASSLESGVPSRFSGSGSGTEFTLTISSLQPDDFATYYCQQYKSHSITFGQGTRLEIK
notes: as for B1
Regarding B2, the Affinity in assay [1] came out at 8.2e-10.

B3: L.1c7 (antibody, V domains shown)
VH: B1 VH with Y32F, T35S, T56S, H59Y, Y60S, Y111F
VL: DIQMTQSPSTLSASVGDRVTITCRASQSISSWLAWYQQRPGKAPKLLIYKASSLESGVPSRFSGRGSGTEFTLTISSLQPDDFATYYCQQYKSHSITFGQGTRLEIK
notes: as for B1
In assay [1], B3 displayed an Affinity of 3.9e-09.

B4: 3.2E3 (antibody, V domains shown)
VH: QVQLVESGGGVVQPGRSLRLSCVASGFTLSLNGMHWVRQAPGKGLEWVAVIWYDGSNRYYVDSVKGRFTISRDNSKNTLYLQMNSLRAEDTAVYYCARESFLGTFDYWGQGTLVTVSS
VL: DIQLTQSPSFLSASVGDRVTITCRASQGISSYLAWYQQKPGKAPKLLIYAASTLQSGVPSRFSGSGSGTEFTLTISSLQPEDFATYYCQQLNSYPYTFGQGTKLEIK
Consider B4, for which the binding result in assay [2] was “no binding (tested: 10 µg/ml)”.

B5: 2.4c10 (antibody, V domains shown)
VH: QVQLVESGGGVVQPGRSLRLSCAASGFTFSNYGMHWVRQAPDKGLEWVAVIWYDGSKKYYADSVKGRFTISRDDSKNTLYLQMNSLRAEDTAVYYCARWGELRYDAFDIWGQGTMVTVSS
VL: not shown
notes: as for B1
B5 registered an Affinity in assay [1] of 3e-08.

B6: 2.6f11 (antibody, V domains shown)
VH: B5 VH with N31S, D42G, A61T, D74N, Y94F, E101S, L102G, R103N, Y104F, A106S
VL: DIQMTQSPSTLSASVGDRVTITCRASQSISSWLAWYQQKPGKAPKLLISKASSLESGVPSRFSGSGSGTEFTLTISSLQPDDFATYYCQQYKNYWTFGQGTKVEIK
notes: as for B1
With B6, the Affinity in assay [1] worked out at 2.1e-09.
